Measured values taken from PMC6613789.

Target: apoE4 (UniProt P02649 19-317, C130R)
Test: EMSA

Chain of apoE4 (P02649 19-317 C130R): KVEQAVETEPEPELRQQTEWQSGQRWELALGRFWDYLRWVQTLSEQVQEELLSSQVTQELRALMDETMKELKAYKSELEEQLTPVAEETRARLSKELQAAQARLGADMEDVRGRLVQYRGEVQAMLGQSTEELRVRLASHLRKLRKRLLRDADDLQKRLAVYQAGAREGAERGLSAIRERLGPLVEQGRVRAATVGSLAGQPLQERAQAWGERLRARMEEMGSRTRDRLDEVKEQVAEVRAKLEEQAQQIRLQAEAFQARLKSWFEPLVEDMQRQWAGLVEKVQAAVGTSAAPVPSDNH

B1: CLEAR EMSA probe (dsDNA)
DNA 1: GTAGGTCACGTGACCGGG
DNA 2: CCCGGTCACGTGACCTAC
B1: binds.
